Measurements taken from patent US20230121197A1, “ANTIBODIES SPECIFICALLY BINDING THE CARBOXYMETHYLATED CATALYTIC SUBUNIT OF PROTEIN PHOSPHATASE 2A” (Medizinische Universität Wien, priority 2020, published 2023).
No end group written: not given here.

T1: PP6c C-terminal peptide L305, ac-IPPRTTTPYFL (non-methylated) (human)
T1 construct: also called PP6 L305
T1 peptide: Ac-IPPRTTTPYFL

T2: PP6c C-terminal peptide meL305, ac-IPPRTTTPYFL-CH3 (α-carboxymethylated) (human, SMILES …)
T2 construct: also called PP6 meLeu305
T2 peptide: Ac-IPPRTTTPYFL-OMe

T3: PP2Ac C-terminal peptide meL309, ac-HVTRRTPDYFL-CH3 (α-carboxymethylated) (human, SMILES …)
T3 construct: also called Y307-meL309; mePP2Ac
T3 peptide: Ac-HVTRRTPDYFL-OMe

B1: 7C10-C5: α-carboxymethylation specific mouse monoclonal IgG1 antibody from single clone hybridoma 7C10-C5 (DSM ACC3350) (antibody)
heavy: MYRMQLLSCIALSLALVTNSDVQLQESGPGLVKPSQSLSLTCSVTGYSITSGYYWNWIRQFPGNKLEWMGYISYDGSNNYNPSLKNRISITRDTSKNQFFLKLNSVTTEDTATYYCAGRFAYWGQGTLVTVSAAKTTAPSVYPLAPVCGDTTGSSVTLGCLVKGYFPEPVTLTWNSGSLSSGVHTFPAVLQSDLYTLSSSVTVTSSTWPSQSITCNVAHPASSTKVDKKIEPRGPTIKPCPPCKCPAPNLLGGPSVFIFPPKIKDVLMISLSPIVTCVVVDVSEDDPDVQISWFVNNVEVHTAQTQTHREDYNSTLRVVSALPIQHQDWMSGKEFKCKVNNKDLPAPIERTISKPKGSVRAPQVYVLPPPEEEMTKKQVTLTCMVTDFMPEDIYVEWTNNGKTELNYKNTEPVLDSDGSYFMYSKLRVEKKNWVERNSYSCSVVHEGLHNHHTTKSFSRTPGK
light: MDMRVPAQLLGLLLLWLSGARCDVLMTQTPLSLPVSLGDQASISCRSSQSIVHSNGNTYLEWYLQKPGQSPKLLIYKVSNRFSGVPDRFSGSGSGTDFTLKINRVEAEDLGVYYCFQGSHVPWTFGGGTKLEIKADAAPTVSIFPPSSEQLTSGGASVVCFLNNFYPKDINVKWKIDGSERQNGVLNSWTDQDSKDSTYSMSSTLTLTKDEYERHNSYTCEATHKTSTSPIVKSFNRNEC
modifications: Amino acid sequence of the recombinant 7C10-C5 heavy chain; Amino acid sequence of the recombinant 7C10-C5 light chain
B2: 7C10-C5 monoclonal antibody (antibody, V domains shown)
VH: DVQLQESGPGLVKPSQSLSLTCSVTGYSITSGYYWNWIRQFPGNKLEWMGYISYDGSNNYNPSLKNRISITRDTSKNQFFLKLNSVTTEDTATYYCAGRFAYWGQGTLVTVSA
VL: DVLMTQTPLSLPVSLGDQASISCRSSQSIVHSNGNTYLEWYLQKPGQSPKLLIYKVSNRFSGVPDRFSGSGSGTDFTLKINRVEAEDLGVYYCFQGSHVPWTFGGGTKLEIK
notes: Used as hybridoma culture supernatant (ELISA, Western blot, IHC) or at 50 µg/mL (SPR); also called 7C10 X63; clone 7C10-C5

Assays:
[1] = system: PP4; assay: Summary of cross-reactivities of C-terminal PP2Ac antibodies (Table 4), PP4; settings: antibodies screened for binding methylated PP2Ac
Excerpt: Examples of antibodies with a preference for non-methylated PP2Ac are mouse monoclonal antibody 4B7 (Yu (2001), Mol Biol Cell 12, 185-199), mouse monoclonal antibody 1D7 generated by the Ogris lab but also the rabbit monoclonal E155 antibody from Abeam and the mouse monoclonal F-8 from SCBT that were thought to be specific for pTyr^307.

[2] = target: T1, PP6c C-terminal peptide L305, …; assay: ELISA, values normalized to meL309, Neg = TBS only, N=7
Excerpt: (§1) FIG. 9: Monoclonal antibody 7C10-C5 detects α-carboxymethylated PP2Ac C-terminal peptides with >10-fold higher signal intensity than the α-carboxymethylated PP4c and PP6c C-terminal peptides in ELISA. Nunc Medisorp 96-well ELISA flat-bottom plates were coated with PP2Ac peptides L309 (ac-[…]) (SEQ ID NO:18), meL309 (ac-[…]-CH3) (SEQ ID NO:18), PP4c peptides L307 (ac-[…]) (SEQ ID NO:20), meL307 (ac-[…]-CH₃) (SEQ ID NO:20), PP6c peptides L305 (ac-[…]) (SEQ ID NO:22) or meL305 (ac-[…]-CH₃) (SEQ ID NO:22) at 2 μg/ml in TBS or TBS only (Neg) at 4° C. over-night. After washing once with TBS, the wells were incubated with 2% BSA in TBS for 1 h at RT. After washing once with TBS, the wells were incubated with single clone hybridoma cell culture supernatant, clone 7C10-C5 1:50 for 1 h at RT. After washing twice with TBS, wells were incubated with anti-mouse and anti rabbit HRP-coupled secondary antibody for 1 h at RT, followed by washing 3× in PBS. Bound antibodies were detected by colorimetric reaction with 3,3′,5,5′-Tetramethylbenzidine as substrate, and absorbance was measured at 450 nm. Values were normalized to meL309 which was set to 1. Average and standard deviation of N=7 experiments are shown. […] Statistical significance was assessed using ANOVA followed by Tukey's HSD as a post-hoc test. […]

[3] = target: T2, PP6c C-terminal peptide meL305, …; assay: as above
Excerpt: as §1

[4] = target: T3, PP2Ac C-terminal peptide meL309, …; assay: SPR (Biacore T200), antibody captured by anti-mouse IgG on CM5 chip, peptide 5-160 nM as analyte, steady state analysis, 25 °C
Experimental: The differential affinity of anti-carboxymethylated PP2Ac antibodies, 7C10-C5 and 2A10, to carboxymethylated PP2A catalytic subunit versus noncarboxymethylated PP2A catalytic subunit was determined by surface plasmon resonance (SPR) on a Biacore T200 (GE Healthcare) at the Core Facility Biomolecular & Cellular Analysis (University of Natural Resources and Life Sciences Vienna BOKU). The affinity of 7C10-C5 for carboxymethylated and noncarboxymethylated catalytic subunit of PP4 (PP4c), a PP2A-related phosphatase, was also determined.
Series S Sensor Chip CM5 (GE Healthcare, 10296958) Flow cells (e.g. Flow cells 3 and 4 for the data shown in Table 5 and FIG. 32) were coated with 30 μg/mL anti-mouse IgG antibody (in immobilization buffer) using the mouse antibody capture kit (GE Healthcare, BR-1008-38, Lot 10294578) via amine coupling according to the manufacturer's protocol (i.e. https://www.cytivalifesciences. com/en/us/shop/protein-analysis/spr-lab el-free-analysis/capture-reagents/mouse-antibody-capture-kit-p-05986). The immobilisation levels obtained were 11620.2 RU (Flow cell 1), 10836.5 RU (Flow cell 2), 11605.9 RU (Flow cell 3) and 11333.9 RU (Flow cell 4), and thus were within the specifications. […]
SPR experiments were performed with the BiacoreT200 instrument (Cytiva). […] The sensorgrams obtained were analyzed with BiacoreT200 Evaluation Software (version 3.1).

Molecule	PP4 meLeu^307 [1]	binding result [2]	binding result [3]	Kd [4] [nM]
B1	— (— <15%)	–	–	–
B2	–	no binding	no binding	11
